From US20190119357A1 (MODERNATX, published 2019)

Target: T1, MDM2 (UniProt Q00987 1-491, limits assumed)
T1 construct: Endogenous MDM2 of HCT116 cells
Test: anti-V5 immunoprecipitation from transfected HCT116 cell lysates, blot probed with anti-MDM2

T1 sequence (Q00987 whole entry): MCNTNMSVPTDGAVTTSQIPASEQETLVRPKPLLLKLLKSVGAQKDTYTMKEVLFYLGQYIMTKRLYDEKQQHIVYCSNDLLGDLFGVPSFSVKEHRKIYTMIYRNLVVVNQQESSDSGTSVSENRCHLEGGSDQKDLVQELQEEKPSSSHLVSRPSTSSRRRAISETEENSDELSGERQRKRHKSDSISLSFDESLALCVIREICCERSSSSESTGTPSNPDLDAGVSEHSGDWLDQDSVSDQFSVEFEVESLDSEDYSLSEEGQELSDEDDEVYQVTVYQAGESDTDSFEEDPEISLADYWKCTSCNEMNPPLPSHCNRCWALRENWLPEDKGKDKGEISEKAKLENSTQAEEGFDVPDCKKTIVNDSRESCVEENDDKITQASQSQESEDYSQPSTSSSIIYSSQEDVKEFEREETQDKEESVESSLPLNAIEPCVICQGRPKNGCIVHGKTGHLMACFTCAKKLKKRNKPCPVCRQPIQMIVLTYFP

binding result	Binder
binds	SQT(MDM2)(nt).P7041.cV5 (designed binder, also called P7041 peptide in N-terminus of SQT; SQT-MDM2 construct 2) MIPRLTFEEYWAQLLSAAGLSEAKPATPEIQEIVDKVKPQLEEKTNETYGKLEAVQYKTQVLASTNYYIKVRAGDNKYMHLKVFNGPPGQNADRVLTGYQVDKNKDDELTGFGKPIPNPLLGLDST
binds	SQT(MDM2)(nt).P6W.cV5 (designed binder, also called P6W peptide in N-terminus of SQT; SQT-MDM2 construct 7) MIPRLTFEHWWAQLTSGLSEAKPATPEIQEIVDKVKPQLEEKTNETYGKLEAVQYKTQVLASTNYYIKVRAGDNKYMHLKVFNGPPGQNADRVLTGYQVDKNKDDELTGFGKPIPNPLLGLDST
binds	SQT(MDM2)(nt).pMI.cV5 (designed binder, also called pMI peptide in N-terminus of SQT; SQT-MDM2 construct 4) MIPRTSFAEYWNLLSPGLSEAKPATPEIQEIVDKVKPQLEEKTNETYGKLEAVQYKTQVLASTNYYIKVRAGDNKYMHLKVFNGPPGQNADRVLTGYQVDKNKDDELTGFGKPIPNPLLGLDST
binds	SQT(MDM2)(nt).pDIQ.cV5 (designed binder, also called pDIQ peptide in N-terminus of SQT; SQT-MDM2 construct 3) MIPRETFEHWWSQLLSGLSEAKPATPEIQEIVDKVKPQLEEKTNETYGKLEAVQYKTQVLASTNYYIKVRAGDNKYMHLKVFNGPPGQNADRVLTGYQVDKNKDDELTGFGKPIPNPLLGLDST
binds	SQT(MDM2)(L2).P3848.cV5 (designed binder, also called P3848 peptide in Loop 2 of SQT; SQT-MDM2 construct 5) MIPRGLSEAKPATPEIQEIVDKVKPQLEEKTNETYGKLEAVQYKTQVLASTNYYIKVRAGDNKYMHLKVFNGPLTFEHYWAQLTSPGQNADRVLTGYQVDKNKDDELTGFGKPIPNPLLGLDST
binds	SQT(MDM2)(L2).P1E6W.cV5 (designed binder, also called P1E6W peptide in Loop 2 of SQT; SQT-MDM2 construct 6) MIPRGLSEAKPATPEIQEIVDKVKPQLEEKTNETYGKLEAVQYKTQVLASTNYYIKVRAGDNKYMHLKVFNGPETFEHWWAQLTSPGQNADRVLTGYQVDKNKDDELTGFGKPIPNPLLGLDST
